System: CC(C)(O)[C@@H](O)C(=O)O
Test: purified protein
Type: biochemical, Synechocystis sp. PCC 6803
Details: aerobic

Substance	Km (as-purified enzyme) [µM]	Km (as-purified enzyme 0.05 μM, pH 8.0, 50 °C) [µM]
SnDHAD (Synechocystis sp. PCC 6803 substr. Kazusa; Y477H)	108.9 ± 10.7	
SnDHAD (Synechocystis sp. PCC 6803 substr. Kazusa)		136.3 ± 9.0

Source: paper PMC8162731
